Results published in patent US20220204611A1 (Amgen, published 2022).
Positions count from the first letter of the chain named.

T1: human TREM2 on cells (human, UniProt Q9NZC2 19-230)
T1 sequence: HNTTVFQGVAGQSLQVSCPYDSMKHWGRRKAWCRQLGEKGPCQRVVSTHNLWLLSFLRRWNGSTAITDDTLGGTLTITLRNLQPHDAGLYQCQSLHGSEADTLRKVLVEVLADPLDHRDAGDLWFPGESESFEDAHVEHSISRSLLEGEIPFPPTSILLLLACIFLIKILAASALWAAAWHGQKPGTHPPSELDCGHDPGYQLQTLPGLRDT

T2: human TREM2 (human, UniProt Q9NZC2 19-174, limits assumed)
T2 sequence: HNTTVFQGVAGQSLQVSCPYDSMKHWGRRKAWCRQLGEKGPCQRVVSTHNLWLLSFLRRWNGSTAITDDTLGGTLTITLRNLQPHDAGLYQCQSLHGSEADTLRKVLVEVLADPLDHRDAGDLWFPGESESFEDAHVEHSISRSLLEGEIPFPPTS

B1: 12G10 (antibody, human IgG2, V domains shown)
VH: EVQLLESGGGLVQPGGSLRLSCAASGFTFSSYAMSWVRQAPGKGLEWVSAIGGGGVSTYCADSVKGRFTISRDNSKNTLYLQMNSLRAEDTAVYYCAKFYIAVAGSHFDYWGQGTLVTVSS
VL: QAVPTQPSSLSASPGVLASLTCTLRSGINVGTYRIYWYQQKPGSPPQYLLRYKSDSDKQQGSGVPSRFSGSKDASANAGILLISGLQSEDEADYYCMIWYSSAVVFGGGTKLTVL
B2: V48 (Fab, V domains shown)
VH: EVQLVQSGAEVKKPGESLKISCKGSGYSFGSYWIAWVRQMPGKGLEWMGIIYPGDSDVRYSPSFQGQVTISADKSISTAYLQWSSLKASDTAMYFCARMRTFYYDSSDYFDYWGQGTLVTVSS
VL: DIQMTQSPSSVSASVGDRVTITCRASQGISSWLAWYQQKPGKAPKLLIYAASSLQTGVPSRFSGSGSGTDFTLTISSLQPEDFATYFCQQADSLPRTFGQGTKLEIK
B3: V88 (Fab, V domains shown)
VH: B2 VH with V58T, M99Q
VL: B2 VL with S53R, T56R, L94S
B4: V76 (Fab, V domains shown)
VH: B2 VH with V58T, S63E, M99Q, F110S
VL: B2 VL with T56K, T69R, L94F
B5: V87 (Fab, V domains shown)
VH: B2 VH with G30R, S63D, M99S
VL: B2 VL with T56W, L94F
B6: V61 (Fab, V domains shown)
VH: B2 VH with G30S, V58T, S61N, M99G
VL: B2 VL with Q55V, T56N
B7: V51 (Fab, V domains shown)
VH: B2 VH with G30T, M99G, Y112N
VL: B2 VL with L54R, T56N, L94F
B8: V52 (Fab, V domains shown)
VH: B2 VH with G30E, V58T, M99G
VL: B2 VL with T56R, S93R, L94F
B9: V77 (Fab, V domains shown)
VH: B2 VH with G30T, V58T, M99Q
VL: B2 VL with L54R, T56N, L94F
B10: V74 (Fab, V domains shown)
VH: B2 VH with G30A, M99G
VL: B2 VL with T56L, L94F
B11: V89 (Fab, V domains shown)
VH: B2 VH with G30T, V58T, M99Q
VL: B2 VL with T56N, L94H
B12: V62 (Fab, V domains shown)
VH: B2 VH with V58T, S61A, M99Q, D108G
VL: B2 VL with T56R, Q89G, L94F
B13: V75 (Fab, V domains shown)
VH: B2 VH with G30T, V58T, M99G
VL: B2 VL with T56A, L94Y
B14: V49 (Fab, V domains shown)
VH: B2 VH with G30N, I50T, V58T, Y60L, M99S
VL: B2 VL with L54R, T56N, L94Y
B15: V63 (Fab, V domains shown)
VH: B2 VH with G30R, V58T, M99S
VL: B2 VL with T56R, S93R, L94F
B16: V60 (Fab, V domains shown)
VH: B2 VH with S28H, G30T, M99Q, F110S
VL: B2 VL with T56R, Q89G, L94F
B17: V84 (Fab, V domains shown)
VH: B2 VH with S28G, G30T, V58T, M99Q, F110S
VL: B2 VL with A50G, T56N, L94F
B18: V73 (Fab, V domains shown)
VH: B2 VH with V58T, S63G, M99G
VL: B2 VL with L54R, T56N, L94Y
B19: V72 (Fab, V domains shown)
VH: B2 VH with G30T, A35G, V58T, M99G
VL: B2 VL with Q55V, T56N, L94Y
B20: V85 (Fab, V domains shown)
VH: B2 VH with G30R, I50T, V58T, M99S
VL: B2 VL with L54R, T56N, L94F
B21: V86 (Fab, V domains shown)
VH: B2 VH with I34L, V58T, Q65E, M99S
VL: B2 VL with L54R, T56N, L94F
B22: V53 (Fab, V domains shown)
VH: B2 VH with G30T, V58T, S63H, M99Q
VL: B2 VL with T56N, L94F

target: T1, human TREM2 on cells; experiment: cell-based or functional assay

Question: How did the “pSyk EC50” value turn out when B1 was run?
Answer: Its value is 0.4 nM.

target: T2, human TREM2; experiment: yeast-displayed Fab FACS, 2nd screen 10 nM

Question: With B2 as the binder, how does the “binding signal fold over 6E7 parental” value read?
Answer: The value was 2.54 fold.

Question: With B3 as the binder, how does the “binding signal fold over 6E7 parental” value read?
Answer: The value was 5.3 fold.

Question: How did the “binding signal fold over 6E7 parental” value turn out when B4 was run?
Answer: Its value is 4.93 fold.

Question: B5 was tested. Which “binding signal fold over 6E7 parental” value did it give?
Answer: Its value is 3.93 fold.

Question: With B6 as the binder, how does the “binding signal fold over 6E7 parental” value read?
Answer: The value was 5.22 fold.

Question: How did the “binding signal fold over 6E7 parental” value turn out when B7 was run?
Answer: The value was 3.18 fold.

Question: With B8 as the binder, how does the “binding signal fold over 6E7 parental” value read?
Answer: The value was 3.09 fold.

Question: How did the “binding signal fold over 6E7 parental” value turn out when B9 was run?
Answer: The value was 1.38 fold.

Question: Which “binding signal fold over 6E7 parental” value does the source give for B10 here?
Answer: Its value is 4.01 fold.

Question: For B11, which “binding signal fold over 6E7 parental” value is on record?
Answer: The value was 1.46 fold.

Question: How did the “binding signal fold over 6E7 parental” value turn out when B12 was run?
Answer: Its value is 2.89 fold.

Question: With B13 as the binder, how does the “binding signal fold over 6E7 parental” value read?
Answer: The value was 4.52 fold.

Question: B14 was tested. Which “binding signal fold over 6E7 parental” value did it give?
Answer: The value was 6.58 fold.

Question: How did the “binding signal fold over 6E7 parental” value turn out when B15 was run?
Answer: The value was 3.71 fold.

Question: With B16 as the binder, how does the “binding signal fold over 6E7 parental” value read?
Answer: The value was 3.63 fold.

Question: For B17, which “binding signal fold over 6E7 parental” value is on record?
Answer: Its value is 1.62 fold.

Question: How did the “binding signal fold over 6E7 parental” value turn out when B18 was run?
Answer: The value was 5.44 fold.

Question: How did the “binding signal fold over 6E7 parental” value turn out when B19 was run?
Answer: The value was 4.01 fold.

Question: For B20, which “binding signal fold over 6E7 parental” value is on record?
Answer: Its value is 5.37 fold.

Question: Which “binding signal fold over 6E7 parental” value does the source give for B21 here?
Answer: The value was 5.02 fold.

Question: For B22, which “binding signal fold over 6E7 parental” value is on record?
Answer: Its value is 1.17 fold.

target: T2, human TREM2; experiment: yeast-displayed Fab FACS, 1st screen 10 nM

Question: With B2 as the binder, how does the “binding signal fold over 6E7 parental” value read?
Answer: Its value is 2.42 fold.

Question: B3 was tested. Which “binding signal fold over 6E7 parental” value did it give?
Answer: Its value is 4.92 fold.

Question: Which “binding signal fold over 6E7 parental” value does the source give for B4 here?
Answer: Its value is 4.57 fold.

Question: Which “binding signal fold over 6E7 parental” value does the source give for B5 here?
Answer: Its value is 3.84 fold.

Question: B6 was tested. Which “binding signal fold over 6E7 parental” value did it give?
Answer: Its value is 5.08 fold.

Question: With B7 as the binder, how does the “binding signal fold over 6E7 parental” value read?
Answer: Its value is 2.81 fold.

Question: For B8, which “binding signal fold over 6E7 parental” value is on record?
Answer: The value was 3 fold.

Question: With B9 as the binder, how does the “binding signal fold over 6E7 parental” value read?
Answer: Its value is 1.43 fold.

Question: Which “binding signal fold over 6E7 parental” value does the source give for B10 here?
Answer: The value was 3.94 fold.

Question: With B11 as the binder, how does the “binding signal fold over 6E7 parental” value read?
Answer: The value was 1.33 fold.

Question: How did the “binding signal fold over 6E7 parental” value turn out when B12 was run?
Answer: Its value is 2.49 fold.

Question: With B13 as the binder, how does the “binding signal fold over 6E7 parental” value read?
Answer: The value was 4.64 fold.

Question: How did the “binding signal fold over 6E7 parental” value turn out when B14 was run?
Answer: The value was 6.51 fold.

Question: Which “binding signal fold over 6E7 parental” value does the source give for B15 here?
Answer: Its value is 3.76 fold.

Question: With B16 as the binder, how does the “binding signal fold over 6E7 parental” value read?
Answer: The value was 3.26 fold.

Question: For B17, which “binding signal fold over 6E7 parental” value is on record?
Answer: The value was 1.44 fold.

Question: For B18, which “binding signal fold over 6E7 parental” value is on record?
Answer: Its value is 5.12 fold.

Question: Which “binding signal fold over 6E7 parental” value does the source give for B19 here?
Answer: Its value is 3.64 fold.

Question: Which “binding signal fold over 6E7 parental” value does the source give for B20 here?
Answer: The value was 5.41 fold.

Question: Which “binding signal fold over 6E7 parental” value does the source give for B21 here?
Answer: Its value is 4.8 fold.

Question: How did the “binding signal fold over 6E7 parental” value turn out when B22 was run?
Answer: The value was 1.25 fold.

target: T2, human TREM2; experiment: yeast-displayed Fab FACS, 2nd screen 2 nM

Question: How did the “binding signal fold over 6E7 parental” value turn out when B2 was run?
Answer: The value was 2.3 fold.

Question: For B3, which “binding signal fold over 6E7 parental” value is on record?
Answer: The value was 5.57 fold.

Question: With B4 as the binder, how does the “binding signal fold over 6E7 parental” value read?
Answer: Its value is 4.34 fold.

Question: Which “binding signal fold over 6E7 parental” value does the source give for B5 here?
Answer: Its value is 4.86 fold.

Question: Which “binding signal fold over 6E7 parental” value does the source give for B6 here?
Answer: Its value is 3.63 fold.

Question: B7 was tested. Which “binding signal fold over 6E7 parental” value did it give?
Answer: Its value is 1.83 fold.

Question: With B8 as the binder, how does the “binding signal fold over 6E7 parental” value read?
Answer: Its value is 1.78 fold.

Question: B9 was tested. Which “binding signal fold over 6E7 parental” value did it give?
Answer: The value was 0.83 fold.

Question: For B10, which “binding signal fold over 6E7 parental” value is on record?
Answer: Its value is 2.54 fold.

Question: Which “binding signal fold over 6E7 parental” value does the source give for B11 here?
Answer: The value was 0.94 fold.

Question: B12 was tested. Which “binding signal fold over 6E7 parental” value did it give?
Answer: The value was 1.87 fold.

Question: B13 was tested. Which “binding signal fold over 6E7 parental” value did it give?
Answer: The value was 3.74 fold.

Question: How did the “binding signal fold over 6E7 parental” value turn out when B14 was run?
Answer: The value was 5.02 fold.

Question: B15 was tested. Which “binding signal fold over 6E7 parental” value did it give?
Answer: The value was 4.91 fold.

Question: How did the “binding signal fold over 6E7 parental” value turn out when B16 was run?
Answer: Its value is 3.35 fold.

Question: For B17, which “binding signal fold over 6E7 parental” value is on record?
Answer: The value was 1.45 fold.

Question: B18 was tested. Which “binding signal fold over 6E7 parental” value did it give?
Answer: Its value is 4.17 fold.

Question: For B19, which “binding signal fold over 6E7 parental” value is on record?
Answer: The value was 2.5 fold.

Question: How did the “binding signal fold over 6E7 parental” value turn out when B20 was run?
Answer: Its value is 5.41 fold.

Question: For B21, which “binding signal fold over 6E7 parental” value is on record?
Answer: Its value is 5.17 fold.

Question: With B22 as the binder, how does the “binding signal fold over 6E7 parental” value read?
Answer: Its value is 0.66 fold.
